Each block holds one substance with its values, some of them ahead of it.
What was measured:
[1] = target: dithiol glutaredoxin-1 from Clostridium oremlandii (strain OhILAs) (Clostridium oremlandii (strain OhILAs)); assay: crystal structure; d-cGrx1 alone; crystals from 0.1 M sodium phosphate/citric acid pH 4.2, 0.2 M lithium sulfate, 20% PEG 1000, 20°C
[2] = target: monothiol glutaredoxin-1 from Clostridium oremlandii (C16S) (Clostridium oremlandii (strain OhILAs)); assay: crystal structure; m-cGrx1–cMsrA complex (β3-swap), formed by incubation with 5 mM methionine sulfoxide at 4°C for 2 h and purified on Superdex 75; crystals from 0.1 M sodium phosphate/citric acid pH 4.2, 0.4 M potassium phosphate (dibasic)/1.6 M sodium phosphate (monobasic), 20°C
[3] = target: monothiol glutaredoxin-1 from Clostridium oremlandii (C16S) (Clostridium oremlandii (strain OhILAs)); assay: crystal structure; m-cGrx1 alone (β1-swap), formed in the presence of hydrogen peroxide; crystals from 0.1 M HEPES pH 7.5, 20% PEG 400, 8% PEG 8000, 20°C

stoichiometry N [1]: 2
Substance: dithiol glutaredoxin-1 from Clostridium oremlandii (strain OhILAs) (enzyme)

stoichiometry N (cGrx1 per cMsrA (four cGrx1 : two cMsrA)) [2]: 2
Substance: methionine sulfoxide reductase A from Clostridium oremlandii (enzyme)

stoichiometry N [3]: 4 | stoichiometry N [2]: 4
Substance: monothiol glutaredoxin-1 from Clostridium oremlandii (C16S) (enzyme)
